From publication PMC5681435, “Differential Regulation of G1 CDK Complexes by the Hsp90-Cdc37 Chaperone System” (Cell Reports, 2017)
Several values for one entry are separate records, joined by “and”; a condition that tells them apart may be missing. Equal entries are not always repeated. Entries after “also recorded” stand apart in the source; their conditions may differ.

Tests used:
[1] = target: T1, CDK6-Cdc37 and CDK6-Cdc37-SfHsp90 complexes (Homo sapiens, UniProt Q00534); assay: Pull-down with Avi-tagged bait from CDK6-Cdc37 and CDK6-Cdc37-SfHsp90 complexes assembled in insect cells; type: binding; conditions: 3-fold molar excess of complex, 4 °C
T1 construct: Full length human CDK4 and CDK6 with an N-terminal; made in house; host or cells: Sf9 insect cells (co-expression, baculovirus)
T1 sequence (Q00534 whole entry, one chain of several): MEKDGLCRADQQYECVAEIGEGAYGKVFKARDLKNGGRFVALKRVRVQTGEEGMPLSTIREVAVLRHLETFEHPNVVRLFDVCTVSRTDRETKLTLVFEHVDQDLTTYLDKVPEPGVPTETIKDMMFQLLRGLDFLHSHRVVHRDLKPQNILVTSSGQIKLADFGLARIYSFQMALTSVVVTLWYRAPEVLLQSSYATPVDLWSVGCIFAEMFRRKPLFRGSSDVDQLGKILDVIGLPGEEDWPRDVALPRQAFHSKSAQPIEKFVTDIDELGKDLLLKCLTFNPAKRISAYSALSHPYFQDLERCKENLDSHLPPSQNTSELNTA
Experimental: exchange chromatography (HiTrap Q, GE Healthcare). Protein concentrations were determined by NanoDrop2000 UV-Vis Spectrophotometer (Thermo Scientific) or using a Shimadzu UV1800 spectrophotometer. A representative SDS-polyacrylamide gel stained with silver is shown in Figure S4 to illustrate the purity of the GSTCDK4 and GSTCDK6 […]
Avi-tagged proteins (Cdc37, p16INK4a, p16INK4a mutants, Kcyclin and Vcyclin) were biotinylated to provide an affinity tag for the streptavidin-tagged XL665 dye. A substantial amount of biotinylated protein was purified from the recombinant E. coli cells as a result of endogenous BirA activity. Proteins were further modified by incubating 40 µM of the Avi-tagged protein with 10 µg BirA in biotinylation buffer (50 mM Bicine pH 8.3, 10 mM ATP, 10 mM MgOAc, 50 µM d-biotin) at 30°C for 60 minutes. […] The extent of protein biotinylation was monitored by pull downs using High Capacity NeutrAvidin® Agarose Resin (Thermo […]
To assemble the various complexes, 15 µg of Cdc37 was mixed with a molar equivalent of CDK6, and incubated for 1hour at 4 °C. […] The reactions were stopped by addition of 2 x LDS buffer and analysed by SDS-PAGE and subsequent western blotting using an anti-phosphorylated S780 antibody […]
Homogenous time-resolved fluorescence (HTRF) […]

[2] = tested on: CDK4-cyclin D1; set-up: method as in Koh et al., 1995; conditions: ref Koh et al., 1995; cited from earlier work
[3] = target: T2, CDK4-Cdc37 complex (Homo sapiens, UniProt P11802); type: binding; conditions: HTRF competition, 8 nM GSTCDK4, 150 nM C-Avi Cdc37
T2 construct: Full length human CDK4 and CDK6 with an N-terminal; made in house; host or cells: GSTCDK4: Sf9 insect cells; Cdc37: E. coli
T2 sequence (P11802 whole entry, one chain of several): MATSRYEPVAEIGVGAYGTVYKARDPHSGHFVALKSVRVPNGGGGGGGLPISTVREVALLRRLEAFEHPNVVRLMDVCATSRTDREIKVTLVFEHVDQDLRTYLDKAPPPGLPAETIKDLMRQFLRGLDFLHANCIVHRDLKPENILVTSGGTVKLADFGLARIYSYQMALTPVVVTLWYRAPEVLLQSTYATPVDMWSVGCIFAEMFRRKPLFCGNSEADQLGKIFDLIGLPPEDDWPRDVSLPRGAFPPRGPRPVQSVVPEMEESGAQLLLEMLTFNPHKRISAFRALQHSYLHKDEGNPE

[4] = target: T3, CDK6 (Homo sapiens, UniProt Q00534); assay: SPR binding to immobilized GSTCDK6; conditions: for Kd: GSTCDK6 captured on chip, 4 °C
T3 construct: Full length human CDK4 and CDK6 with an N-terminal; made in house; host or cells: Sf9 insect cells (baculovirus, MultiBac)
T3 sequence (Q00534 whole entry): as the sequence (Q00534 whole entry, one chain of several) above

[5] = tested on: G1 progression; set-up: method as in Koh et al., 1995; conditions: ref Koh et al., 1995; cited from earlier work
[6] = Differential scanning fluorimetry (DSF) melting temperature; type: physicochemical; conditions: for Tm: 5 µM protein
[7] = target: T4, CDK4 (Homo sapiens, UniProt P11802); assay: SPR binding to immobilized GSTCDK4; conditions: for Binding to CDK4 by SPR (in words): GSTCDK4 captured on chip
T4 construct: Full length human CDK4 and CDK6 with an N-terminal; made in house; host or cells: Sf9 insect cells (baculovirus, MultiBac)
T4 sequence (P11802 whole entry): as the sequence (P11802 whole entry, one chain of several) above

B1: Kcyclin: viral D-type cyclin from Kaposi’s sarcoma-associated herpesvirus (protein)
chain: MATANNPPSGLLDPTLCEDRIFYNILEIEPRFLTSDSVFGTFQQSLTSHMRKLLGTWMFSVCQEYNLEPNVVALALNLLDRLLLIKQVSKEHFQKTGSACLLVASKLRSLTPISTSSLCYAAADSFSRQELIDQEKELLEKLAWRTEAVLATDVTSFLLLKLLGGSQHLDFWHHEVNTLITKALVDPKTGSLPASIISAAGCALLVPANVIPQDTHSGGVVPQLASILGCDVSVLQAAVEQILTSVSDFDLRILDSY
modifications: biotin (on the Avi tag); left off: Avi tag, end not stated, kept
notes: viral D-type cyclin from Kaposi’s sarcoma-associated herpesvirus
In the case of B1, the “Displacement of CDK6 from CDK6-Cdc37 and CDK6-Cdc37-SfHsp90 (pull-down)” value [1] is reported as “able to displace CDK6; also recorded: could extract CDK6”.

B2: p16D84N: p16INK4a mutant in which D84 is mutated to an asparagine (protein)
chain: MEPAAGSSMEPSADWLATAAARGRVEEVRALLEAGALPNAPNSYGRRPIQVMMMGSARVAELLLLHGAEPNCADPATLTRPVHNAAREGFLDTLVVLHRAGARLDVRDAWGRLPVDLAEELGHRDVARYLRAAAGGTRGSNHARIDAAEGPSDIPD
In the case of B2, the “Inhibition of CDK4-cyclin D1 kinase activity” value [2] is given as “as effectively as wild-type p16INK4a”, the “Displacement of Cdc37 from CDK4-Cdc37 complex (in words)” value (from here on “Displacement of Cdc37”) [3] is given as “unable to displace CDK4 or CDK6 from Cdc37” and the Kd [4] is given as 60 nM. For the same molecule, the “Inhibition of G1 progression” value [5] was “modestly less effective”, the Tm [6] was 45.1 (±1.9) °C and the Tm ([6]; listed as D84N) was 45.1 °C. The “Binding to CDK4 by SPR (in words)” value [7] was “binding could be detected but not quantified”.

B3: p16D108N: p16INK4a mutant, D108 mutated to an asparagine (protein)
chain: MEPAAGSSMEPSADWLATAAARGRVEEVRALLEAGALPNAPNSYGRRPIQVMMMGSARVAELLLLHGAEPNCADPATLTRPVHDAAREGFLDTLVVLHRAGARLDVRNAWGRLPVDLAEELGHRDVARYLRAAAGGTRGSNHARIDAAEGPSDIPD
For B3, the “Displacement of Cdc37” value [3] was “only a modest reduction in activity”, the “ΔTm (versus p16INK4a)” value [6] was −10.5 (±1.29) °C and the Tm [6] was 36.4 °C and 36.4 (±3.1) °C.

B4: p16M53I: p16INK4a mutant in which M53 is mutated to an isoleucine (protein)
chain: MEPAAGSSMEPSADWLATAAARGRVEEVRALLEAGALPNAPNSYGRRPIQVMIMGSARVAELLLLHGAEPNCADPATLTRPVHDAAREGFLDTLVVLHRAGARLDVRDAWGRLPVDLAEELGHRDVARYLRAAAGGTRGSNHARIDAAEGPSDIPD
With B4 the “Displacement of Cdc37” value [3] was “ineffective”, the “Higher rate of dissociation from CDK6 compared with wild-type p16INK4a” value [4] was “approximately 10 fold” and the “ΔTm (versus p16INK4a)” value [6] was −4.9 (±2.33) °C. For the same molecule, the Tm [6] was 42.7 (±0.47) °C, the Tm ([6]; listed as M53I) was 42.7 °C and the “Binding to CDK4 by SPR (in words)” value [7] was “binding could be detected but not quantified”. The “Reduction in the strength of the interaction with CDK4 versus wild-type p16INK4a” value ([7]; enhanced koff rate toward CDK4) was > 10^6 fold.

B5: p16M53E: p16INK4a M53E mutant (protein)
chain: MEPAAGSSMEPSADWLATAAARGRVEEVRALLEAGALPNAPNSYGRRPIQVMEMGSARVAELLLLHGAEPNCADPATLTRPVHDAAREGFLDTLVVLHRAGARLDVRDAWGRLPVDLAEELGHRDVARYLRAAAGGTRGSNHARIDAAEGPSDIPD
With B5 the “ΔTm (versus p16INK4a)” value [6] was −4.6 (±1.66) °C and the Tm [6] was 43.2 (±0.38) °C.

B6: Vcyclin: viral D-type cyclin from Herpesvirus saimiri (protein)
chain: MADSPNRLNRAKIDSTTMKDPRVLNNLKLRELLLPKFTSLWEIQTEVTVDNRTILLTWMHLLCESFELDKSVFPLSVSILDRYLCKKQGTKKTLQKIGAACVLIGSKIRTVKPMTVSKLTYLSCDCFTNLELINQEKDILEALKWDTEAVLATDFLIPLCNALKIPEDLWPQLYEAASTTICKALIQPNIALLSPGLICAGGLLTTIETDNTNCRPWTCYLEDLSSILNFSTNTVRTVKDQVSEAFSLYDLEIL
With B6 the Kd [4] was 0.016 ± 0.013 nM and the “Binding to CDK4 by SPR (in words)” value [7] was “the data quality precluded calculation of a Kd”.
